The results in this text go back to patent US6593099B2, “Regulation of human S-acyl fatty acid synthase thioesterase-like enzyme” (Bayer Aktiengesellschaft, priority 2000, dated 2003).

For series [1], the target named is T1, S-acyl fatty acid synthase thioesterase-like enzyme short (long) polypeptide (coolEST49) (Homo sapiens, UniProt Q9NV23).
T1 construct: 6xHis (N); made in house; host or cells: E. coli BL21 (DE3), pET-28a
The series is described as follows: Discontinuous DTNB thioesterase activity / inhibition assay with palmitoyl CoA. In kind it is biochemical. The conditions noted are these: 1 mM AEBSF. As to the method:
Activity of both protein peaks was assayed using an optimized discontinuous assay format. Reaction mixture was 100 mM Tris (pH 8.0), 100 nM coolEST49,±0.1 mM palmitoyl CoA in a volume of 100 μL. The mixture was allowed to incubate at room temperature for 3 hours. After incubation, 150 μL of developer mixture (0.42 mM DTNB in 100 mM Tris) was added, and the absorbance at 412 nm was measured using a 96-well plate reader, using samples without palmitoyl CoA as blanks.
Activity of S-acyl fatty acid synthase thioesterase-like enzyme short (long) polypeptide from the anion exchange column was assayed and compared to that of the eluate from the Ni-NTA column step. An attempt was also made at inhibiting S-acyl fatty acid synthase thioesterase-like enzyme short (long) polypeptide with either DEPC (7 mM) or AEBSF (1 mM).

The target of series [2] is T2, S-acyl fatty acid synthase thioesterase-like enzyme short (long) polypeptide (Homo sapiens, UniProt Q9NV23). The series is described as follows: Continuous DTNB assay, kinetics and substrate searching. To be noted: Batch 1 from baculovirus.
Method: (§1) A continuous assay format was used to get kinetic information on this preparation of S-acyl fatty acid synthase thioesterase-like enzyme short (long) polypeptide, using the same conditions as with the discontinuous assay, except with this format, developer was added to enzyme until a flat signal was achieved, then the reaction was started by the addition of substrate. Along with palmitoyl CoA, the other substrates assayed were acetyl CoA, octanoyl CoA, decanoyl CoA, and lauroyl CoA.
(§2) S-acyl fatty acid synthase thioesterase-like enzyme short (long) polypeptide activity was assayed in the continuous format as described.
The target of series [3] is T2, S-acyl fatty acid synthase thioesterase-like enzyme short (long) polypeptide. Put plainly: Comparison of continuous and discontinuous assay format (pre-incubation with DTNB). The format is biochemical. Set-up: His6; made in house; host or cells: Sf9 insect cells, baculovirus. To be noted: DTNB at the concentrations used in the continuous assay format. The method, then: S-acyl fatty acid synthase thioesterase-like enzyme short (long) polypeptide was incubated in the presence or absence of DTNB, and the A412 was monitored until a baseline was achieved. Substrate (palmitoyl CoA) was then added to each incubation and was incubated for an additional 50 minutes. After this period of time, A412 of each sample was compared to determine whether the pre-incubation of enzyme with DTNB inactivates the enzyme. Enzyme without substrate was used as a blank for the discontinuous assay.

For series [4], the system named is CCCCCCCCCC(=O)SCCNC(=O)CCNC(=O)[C@H](O)C(C)(C)COP(=O)(O)OP(=O)(O)OC[C@H]1O[C@@H](n2cnc3c(N)ncnc32)[C@H](O)[C@@H]1OP(=O)(O)O. The series is described as follows: purified protein, by the assay type. The conditions noted are these: other: Batch 1 from baculovirus, continuous assay.
Method: as §1, §2
The subject of series [5] is CCCCCCCCCCCC(=O)SCCNC(=O)CCNC(=O)[C@H](O)C(C)(C)COP(=O)(O)OP(=O)(O)OC[C@H]1O[C@@H](n2cnc3c(N)ncnc32)[C@H](O)[C@@H]1OP(=O)(O)O. The series is described as follows: purified protein, by the assay type. To be noted: other: Batch 1 from baculovirus, continuous assay.
Method: as §1, §2
In series [6] the test system is CCCCCCCC(=O)SCCNC(=O)CCNC(=O)[C@H](O)C(C)(C)COP(=O)(O)OP(=O)(O)OC[C@H]1O[C@@H](n2cnc3c(N)ncnc32)[C@H](O)[C@@H]1OP(=O)(O)O. Put plainly: purified protein, by the assay type. The conditions noted are these: other: Batch 1 from baculovirus, continuous assay.
Method: as §1, §2
Series [7] relates to CCCCCCCCCCCCCCCC(=O)SCCNC(=O)CCNC(=O)[C@H](O)C(C)(C)COP(=O)(O)OP(=O)(O)OC[C@H]1O[C@@H](n2cnc3c(N)ncnc32)[C@H](O)[C@@H]1OP(=O)(O)O. Put plainly: purified protein, by the assay type. The conditions noted are these: continuous assay.
Method: as §1, §2
The mark [8] stands for this setting: other: Batch 1 from baculovirus.

T2 sequence (Q9NV23 whole entry): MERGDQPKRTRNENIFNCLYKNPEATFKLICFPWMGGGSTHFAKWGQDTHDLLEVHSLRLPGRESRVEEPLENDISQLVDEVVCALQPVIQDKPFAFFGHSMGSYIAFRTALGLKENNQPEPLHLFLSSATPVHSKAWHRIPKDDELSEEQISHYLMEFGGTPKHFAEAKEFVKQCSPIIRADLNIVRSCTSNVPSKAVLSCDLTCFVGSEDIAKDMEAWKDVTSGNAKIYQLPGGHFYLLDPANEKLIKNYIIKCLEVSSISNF
T1 sequence (Q9NV23 whole entry): as above

For `Cl.NCCc1ccc(S(=O)(=O)F)cc1` [AEBSF, 4-(2-Aminoethyl)Benzenesulfonyl Fluoride Hydrochloride], the “Inhibition of S-acyl fatty acid synthase thioesterase-like enzyme short (long) polypeptide activity” value in series [1] is listed as “inhibited”.

In the case of `CC(=O)SCCNC(=O)CCNC(=O)[C@H](O)C(C)(C)COP(=O)(O)OP(=O)(O)OC[C@H]1O[C@@H](n2cnc3c(N)ncnc32)[C@H](O)[C@@H]1OP(=O)(O)O` [Acetyl CoA], the Km entry in series [2] was “immeasurable”. In addition, the kcat entry in series [2] (footnote: 1.0 = 23 mOD/min) is listed as “immeasurable”.

Turning to `O=C(O)c1cc(SSc2ccc([N+](=O)[O-])c(C(=O)O)c2)ccc1[N+](=O)[O-]` [DTNB, 5,5′-dithiobis(2-nitrobenzoic acid)], the “Inactivation of the enzyme” value in series [3] came out at 60%.

Turning to “S-acyl fatty acid synthase thioesterase-like enzyme short (long) polypeptide (Homo sapiens)”, the Km in series [4] is 856.1 µM; in series [5], 76.7 µM; in series [6] it was 12,400 μM; in series [7] (setting [8]) it was 5.1 µM; in series [7] (other: Batch 2 from baculovirus), 2.4 µM. The kcat in series [4] was 0.0467 s⁻¹; in series [5] it was 0.0167 s⁻¹; in series [6], 0.115 s⁻¹; in series [7] (setting [8]), 0.0167 s⁻¹.

One may read the Km as the concentration of substrate that gives half-maximal velocity. A word on the kcat: it is the maximal rate divided by the concentration of active sites.
